Assay results published in paper PMC10147646.

Tests used:
[1] = molecular target: JellyOp(K72T) (Carybdea rastonii)
[2] = molecular target: JellyOp (opsin-based pigment from the box jellyfish Carybdea rastonii) (Carybdea rastonii)
[3] = molecular target: JellyOp (opsin-based pigment from the box jellyfish Carybdea rastonii) (Carybdea rastonii); remark: listed apart in the source

Sequence of JellyOp (opsin-based pigment from the box jellyfish Carybdea rastonii) (Carybdea rastonii) (B6F0Y5 entry or part of it): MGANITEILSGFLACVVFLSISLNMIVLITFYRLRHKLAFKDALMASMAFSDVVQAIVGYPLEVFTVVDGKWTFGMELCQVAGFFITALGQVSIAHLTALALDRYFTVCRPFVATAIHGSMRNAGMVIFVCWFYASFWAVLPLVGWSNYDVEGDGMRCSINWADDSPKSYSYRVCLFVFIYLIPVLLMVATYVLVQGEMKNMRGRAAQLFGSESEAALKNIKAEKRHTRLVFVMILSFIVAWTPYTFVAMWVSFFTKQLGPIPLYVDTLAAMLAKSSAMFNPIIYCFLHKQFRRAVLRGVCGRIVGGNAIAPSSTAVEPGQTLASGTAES

fast time constant of GIRK current inactivation by violet light (double-exponential decay) [1]: 281 ms
slow time constant of GIRK current inactivation by violet light (double-exponential decay) [1]: 8.4 s
time constant of inactivation (TauOFF) of the JellyOp GIRK response by high-intensity violet light (405 nm) [2]: 252 ms
time constant of onset (TauON) of the light-triggered GIRK current in cells expressing JellyOp [3]: 34 ms
Substance: Gαs (from UniProt P63092 1-394) (natural protein)
